From the supplement of paper PMC5998384

Experiments:
HeLa Kyoto [1] = assay: solubility in G1/S (NP-40 vs SDS abundance) (log2 ratio); higher = more soluble; conditions: cell cycle stage: G1/S
HeLa Kyoto [2] = assay: melting temperature (median over replicates), in situ; higher = more thermally stable
HeLa Kyoto [3] = assay: solubility change mitosis vs G1/S (difference of NP-40 vs SDS log2 ratios) (log2 ratio difference); higher = more soluble in mitosis
HeLa Kyoto [4] = assay: thermal stability score vs G1/S (z-score of summed log2 fold changes over temperatures); higher = more thermally stable than in G1/S
[5] = cell cycle stage: early G1 (4.5 h after nocodazole release)
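Wherever melting temperature (median over replicates), in situ is given: HeLa Kyoto cells synchronized by double thymidine or nocodazole block, proteins quantified by TMT10plex mass spectrometry, three independent biological replicates.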
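Wherever solubility change mitosis vs G1/S (difference of NP-40 vs SDS log2 ratios) is given: synchronized HeLa Kyoto cells (double thymidine block for G1/S, nocodazole release for mitosis), protein amounts in NP-40 versus SDS lysates quantified by mass spectrometry, three biological replicates.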
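Wherever solubility in G1/S (NP-40 vs SDS abundance) is given: HeLa Kyoto cells arrested at G1/S by double thymidine block, proteins quantified by TMT10plex mass spectrometry in mild NP-40 versus SDS extracts, three biological replicates.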
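Wherever thermal stability score vs G1/S (z-score of summed log2 fold changes over temperatures) is given: synchronized HeLa Kyoto cells, proteins quantified by TMT10plex mass spectrometry, three biological replicates, mitosis taken 0.5 h after nocodazole release, G1/S directly after double thymidine block.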

Chain of CDK12 (chain, as listed by the source): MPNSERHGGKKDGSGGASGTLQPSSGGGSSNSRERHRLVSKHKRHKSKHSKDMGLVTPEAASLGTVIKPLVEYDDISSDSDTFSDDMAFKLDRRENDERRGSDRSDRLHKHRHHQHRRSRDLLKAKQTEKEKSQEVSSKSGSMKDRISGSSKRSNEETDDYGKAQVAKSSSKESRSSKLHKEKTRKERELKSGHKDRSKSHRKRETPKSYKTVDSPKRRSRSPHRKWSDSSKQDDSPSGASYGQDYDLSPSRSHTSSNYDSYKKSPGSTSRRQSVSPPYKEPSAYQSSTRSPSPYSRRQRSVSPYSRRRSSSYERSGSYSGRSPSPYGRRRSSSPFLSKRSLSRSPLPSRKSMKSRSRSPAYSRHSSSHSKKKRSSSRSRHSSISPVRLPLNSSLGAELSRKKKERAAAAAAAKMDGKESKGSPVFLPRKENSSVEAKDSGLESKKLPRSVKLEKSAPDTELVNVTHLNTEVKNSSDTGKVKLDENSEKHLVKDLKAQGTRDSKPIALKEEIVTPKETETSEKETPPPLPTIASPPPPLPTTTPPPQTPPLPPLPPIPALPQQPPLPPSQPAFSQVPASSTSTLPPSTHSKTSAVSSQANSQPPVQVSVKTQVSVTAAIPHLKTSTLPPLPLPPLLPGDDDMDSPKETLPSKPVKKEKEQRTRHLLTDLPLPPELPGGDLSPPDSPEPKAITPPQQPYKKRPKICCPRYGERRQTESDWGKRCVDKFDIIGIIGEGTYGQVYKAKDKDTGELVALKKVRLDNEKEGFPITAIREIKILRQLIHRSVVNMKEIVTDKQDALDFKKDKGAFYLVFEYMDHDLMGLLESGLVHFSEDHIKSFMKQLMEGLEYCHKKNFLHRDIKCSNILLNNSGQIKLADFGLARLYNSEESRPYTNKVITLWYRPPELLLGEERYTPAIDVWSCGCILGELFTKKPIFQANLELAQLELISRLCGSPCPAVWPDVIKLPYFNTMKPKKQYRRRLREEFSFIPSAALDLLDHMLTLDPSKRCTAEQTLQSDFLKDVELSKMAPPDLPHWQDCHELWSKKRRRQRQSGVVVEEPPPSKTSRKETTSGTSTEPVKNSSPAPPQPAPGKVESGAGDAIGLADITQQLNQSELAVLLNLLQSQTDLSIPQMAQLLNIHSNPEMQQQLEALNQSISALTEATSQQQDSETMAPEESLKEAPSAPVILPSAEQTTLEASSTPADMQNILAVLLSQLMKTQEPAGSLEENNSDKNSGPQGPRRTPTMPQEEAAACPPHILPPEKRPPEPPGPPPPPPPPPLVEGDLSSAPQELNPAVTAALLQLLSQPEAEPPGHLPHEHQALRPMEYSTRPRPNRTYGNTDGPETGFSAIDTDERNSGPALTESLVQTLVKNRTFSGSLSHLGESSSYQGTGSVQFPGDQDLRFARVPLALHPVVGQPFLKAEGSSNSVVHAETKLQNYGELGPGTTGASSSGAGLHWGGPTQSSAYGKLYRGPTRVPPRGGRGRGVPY
Chain of CKB (chain, as listed by the source): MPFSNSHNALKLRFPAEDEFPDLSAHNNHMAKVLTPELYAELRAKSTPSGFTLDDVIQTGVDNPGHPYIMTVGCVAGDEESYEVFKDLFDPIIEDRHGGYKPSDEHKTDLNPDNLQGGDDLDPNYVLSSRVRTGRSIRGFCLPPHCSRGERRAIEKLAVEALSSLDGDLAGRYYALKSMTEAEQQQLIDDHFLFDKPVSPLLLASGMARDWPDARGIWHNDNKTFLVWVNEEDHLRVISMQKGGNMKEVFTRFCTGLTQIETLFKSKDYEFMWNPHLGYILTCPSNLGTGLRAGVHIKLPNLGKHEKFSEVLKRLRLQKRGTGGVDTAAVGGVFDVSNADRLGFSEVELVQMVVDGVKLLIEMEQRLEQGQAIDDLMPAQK
Chain of CHAC2 (chain, as listed by the source): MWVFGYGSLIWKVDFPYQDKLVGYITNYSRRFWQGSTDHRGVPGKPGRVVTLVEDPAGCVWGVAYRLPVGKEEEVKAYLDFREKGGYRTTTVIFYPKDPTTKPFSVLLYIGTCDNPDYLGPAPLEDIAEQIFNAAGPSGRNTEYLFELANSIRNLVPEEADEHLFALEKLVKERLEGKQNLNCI
Chain of CHMP5 (chain, as listed by the source): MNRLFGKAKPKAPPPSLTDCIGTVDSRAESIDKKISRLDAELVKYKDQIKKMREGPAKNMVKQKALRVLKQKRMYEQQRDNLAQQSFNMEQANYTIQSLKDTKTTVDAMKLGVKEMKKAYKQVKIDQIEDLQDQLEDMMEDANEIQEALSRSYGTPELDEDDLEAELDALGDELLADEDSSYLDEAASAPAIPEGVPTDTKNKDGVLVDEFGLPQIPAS
Chain of CLIC4 (chain, as listed by the source): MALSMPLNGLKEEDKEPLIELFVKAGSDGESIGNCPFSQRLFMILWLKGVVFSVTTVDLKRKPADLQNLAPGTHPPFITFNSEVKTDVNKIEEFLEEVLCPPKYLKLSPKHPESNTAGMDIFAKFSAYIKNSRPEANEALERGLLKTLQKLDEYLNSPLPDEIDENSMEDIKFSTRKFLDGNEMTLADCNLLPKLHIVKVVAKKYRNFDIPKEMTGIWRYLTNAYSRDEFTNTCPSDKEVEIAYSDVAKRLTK
Chain of CHID1 (chain, as listed by the source): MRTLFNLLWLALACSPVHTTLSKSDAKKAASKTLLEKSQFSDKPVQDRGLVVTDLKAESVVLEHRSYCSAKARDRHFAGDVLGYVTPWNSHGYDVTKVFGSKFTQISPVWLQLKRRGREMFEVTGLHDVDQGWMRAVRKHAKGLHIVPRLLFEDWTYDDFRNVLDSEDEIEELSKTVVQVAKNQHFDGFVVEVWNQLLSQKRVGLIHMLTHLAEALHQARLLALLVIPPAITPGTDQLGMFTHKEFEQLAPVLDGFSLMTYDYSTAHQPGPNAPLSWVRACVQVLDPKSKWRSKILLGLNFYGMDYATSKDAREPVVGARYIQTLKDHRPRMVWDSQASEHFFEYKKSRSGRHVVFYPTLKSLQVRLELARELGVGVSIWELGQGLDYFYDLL

Row | Substance | solubility in G1/S (log2) (HeLa Kyoto [1]) | melting temperature (HeLa Kyoto [2]; cell cycle stage: G1/S) | melting temperature (HeLa Kyoto [2]; cell cycle stage: mitosis) | solubility change mitosis (log2) (HeLa Kyoto [3]) | thermal stability score (HeLa Kyoto [4]; [5]) | thermal stability score (HeLa Kyoto [4]; cell cycle stage: mitosis)
1 | CDC42BPB | -0.234 | 51 °C | 50.6 °C | -0.105 | 0.874 | 0.582
2 | CDK12 | -0.473 | 50.9 °C | 52.5 °C | 0.238 | -0.391 | 0.677
3 | CHAC2 | 0.541 | 53 °C | 51.9 °C | -0.0779 | 0.759 | 0.354
4 | CHD3 | -0.643 | 46.5 °C | 49.1 °C | 0.14 | 0.67 | 1.73
5 | CHID1 | -0.16 | 53.4 °C | 54 °C | -0.0199 | 0.711 | 2.28
6 | CHMP5 | 0.437 | 55.2 °C | 52.2 °C | 0.751 | -3.8 | -3.3
7 | CKB | 0.651 | 51 °C | 51.3 °C | -0.115 | 1.63 | 2
8 | CLIC4 | 0.409 | 52.1 °C | 52.5 °C | -0.146 | -0.344 | 0.497
9 | COL12A1 | -0.1 | 53.8 °C | 54.9 °C | -0.124 | 4.88 | 5.9
